# Results reported in paper PMC3605359, “Expression, purification and biochemical characterization of Schizosaccharomyces pombe Mcm4, 6 and 7” (BMC Biochemistry, 2013).
# B1: 4C1, core fragment of S. pombe Mcm4 (domain or fragment)
# chain: ISDEEVEKIQQVSKRDDIYDILSRSLAPSIYEMDDVKKGLLLQLFGGTNKSFHKGASPRYRGDINILMCGDPSTSKSQILKYVHKIAPRGVYTSGKGSSAVGLTAYITRDQDTKQLVLESGALVLSDGGICCIDEFDKMSDATRSILHEVMEQQTVTVAKAGIITTLNARTSILASANPIGSKYNPDLPVTKNIDLPPTLLSRFDLVYLILDRVDETLDRKLANHIVSMYMEDTPEHATDMEVFSVEFLTSYITYARNNINPVISEEAAKELVNAYVGMRKLGEDVRASEKRITATTRQLESMIRLSEAHAKMHLRNVVEVGDVLEAARLIKTAIKDYATD
# Legend:
# [1] = biological target: the molecule itself; experiment: SEC; 4C1 at the higher protein concentration (12-mer peak, ~500 kDa); 250 mM NaCl, 50 mM Tris pH8, 1 mM DTT
# [2] = biological target: the molecule itself; experiment: SEC; 4C1 at much lower protein concentration: a center fraction of the 12-mer peak injected again on the same column (hexamer peak, ~250 kDa)
protein,measurement,setting,value
B1,stoichiometry N,[1],12
same,stoichiometry N,[2],6
